According to IntAct's records for PubMed 25910212:

B1: Phytanoyl-CoA dioxygenase, peroxisomal (Homo sapiens), O14832 (parent)
chain: MEQLRAAARLQIVLGHLGRPSAGAVVAHPTSGTISSASFHPQQFQYTLDNNVLTLEQRKFYEENGFLVIKNLVPDADIQRFRNEFEKICRKEVKPLGLTVMRDVTISKSEYAPSEKMITKVQDFQEDKELFRYCTLPEILKYVECFTGPNIMAMHTMLINKPPDSGKKTSRHPLHQDLHYFPFRPSDLIVCAWTAMEHISRNNGCLVVLPGTHKGSLKPHDYPKWEGGVNKMFHGIQDYEENKARVHLVMEKGDTVFFHPLLIHGSGQNKTQGFRKAISCHFASADCHYIDVKGTSQENIEKEVVGIAHKFFGAENSVNLKDIWMFRARLVKGERTNL
B2: U4/U6 small nuclear ribonucleoprotein Prp31 (Homo sapiens), Q8WWY3 (parent)
chain: MSLADELLADLEEAAEEEEGGSYGEEEEEPAIEDVQEETQLDLSGDSVKTIAKLWDSKMFAEIMMKIEEYISKQAKASEVMGPVEAAPEYRVIVDANNLTVEIENELNIIHKFIRDKYSKRFPELESLVPNALDYIRTVKELGNSLDKCKNNENLQQILTNATIMVVSVTASTTQGQQLSEEELERLEEACDMALELNASKHRIYEYVESRMSFIAPNLSIIIGASTAAKIMGVAGGLTNLSKMPACNIMLLGAQRKTLSGFSSTSVLPHTGYIYHSDIVQSLPPDLRRKAARLVAAKCTLAARVDSFHESTEGKVGYELKDEIERKFDKWQEPPPVKQVKPLPAPLDGQRKKRGGRRYRKMKERLGLTEIRKQANRMSFGEIEEDAYQEDLGFSLGHLGKSGSGRVRQTQVNEATKARISKTLQRTLQKQSVVYGGKSTIRDRSSGTASSVAFTPLQGLEIVNPQAAEKKVAEANQKYFSSMAEFLKVKGEKSGLMST
partner: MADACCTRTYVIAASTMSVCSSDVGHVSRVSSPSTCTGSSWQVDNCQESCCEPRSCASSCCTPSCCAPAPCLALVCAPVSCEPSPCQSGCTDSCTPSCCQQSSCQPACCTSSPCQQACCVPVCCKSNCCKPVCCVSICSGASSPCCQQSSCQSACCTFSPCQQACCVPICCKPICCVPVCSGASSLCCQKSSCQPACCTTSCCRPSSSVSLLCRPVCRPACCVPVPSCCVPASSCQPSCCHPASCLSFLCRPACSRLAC
B3: Carbonic anhydrase-related protein (Homo sapiens), P35219 (parent)
chain: MADLSFIEDTVAFPEKEEDEEEEEEGVEWGYEEGVEWGLVFPDANGEYQSPINLNSREARYDPSLLDVRLSPNYVVCRDCEVTNDGHTIQVILKSKSVLSGGPLPQGHEFELYEVRFHWGRENQRGSEHTVNFKAFPMELHLIHWNSTLFGSIDEAVGKPHGIAIIALFVQIGKEHVGLKAVTEILQDIQYKGKSKTIPCFNPNTLLPDPLLRDYWVYEGSLTIPPCSEGVTWILFRYPLTISQLQIEEFRRLRTHVKGAELVEGCDGILGDNFRPTQPLSDRVIRAAFQ
partner: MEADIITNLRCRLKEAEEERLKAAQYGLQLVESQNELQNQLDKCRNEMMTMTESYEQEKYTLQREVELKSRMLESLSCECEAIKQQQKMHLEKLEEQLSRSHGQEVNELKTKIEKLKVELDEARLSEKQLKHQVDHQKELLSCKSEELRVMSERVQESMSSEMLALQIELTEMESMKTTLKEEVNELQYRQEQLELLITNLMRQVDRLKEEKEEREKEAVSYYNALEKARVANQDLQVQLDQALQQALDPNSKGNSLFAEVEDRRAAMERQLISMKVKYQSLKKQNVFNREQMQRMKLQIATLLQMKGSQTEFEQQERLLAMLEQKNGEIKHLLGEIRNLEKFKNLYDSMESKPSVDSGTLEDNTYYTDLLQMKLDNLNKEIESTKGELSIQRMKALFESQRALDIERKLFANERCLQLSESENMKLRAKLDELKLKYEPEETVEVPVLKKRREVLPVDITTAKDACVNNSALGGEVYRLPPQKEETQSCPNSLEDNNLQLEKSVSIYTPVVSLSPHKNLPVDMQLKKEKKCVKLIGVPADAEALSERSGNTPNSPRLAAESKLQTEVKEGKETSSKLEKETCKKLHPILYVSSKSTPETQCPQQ
B4: Fibulin-5 (Homo sapiens), Q9UBX5 (parent)
chain: MPGIKRILTVTILALCLPSPGNAQAQCTNGFDLDRQSGQCLDIDECRTIPEACRGDMMCVNQNGGYLCIPRTNPVYRGPYSNPYSTPYSGPYPAAAPPLSAPNYPTISRPLICRFGYQMDESNQCVDVDECATDSHQCNPTQICINTEGGYTCSCTDGYWLLEGQCLDIDECRYGYCQQLCANVPGSYSCTCNPGFTLNEDGRSCQDVNECATENPCVQTCVNTYGSFICRCDPGYELEEDGVHCSDMDECSFSEFLCQHECVNQPGTYFCSCPPGYILLDDNRSCQDINECEHRNHTCNLQQTCYNLQGGFKCIDPIRCEEPYLRISDNRCMCPAENPGCRDQPFTILYRDMDVVSGRSVPADIFQMQATTRYPGAYYIFQIKSGNEGREFYMRQTGPISATLVMTRPIKGPREIQLDLEMITVNTVINFRGSSVIRLRIYVSQYPF
B5: Complement factor H-related protein 5 (Homo sapiens), Q9BXR6 (parent)
chain: MLLLFSVILISWVSTVGGEGTLCDFPKIHHGFLYDEEDYNPFSQVPTGEVFYYSCEYNFVSPSKSFWTRITCTEEGWSPTPKCLRMCSFPFVKNGHSESSGLIHLEGDTVQIICNTGYSLQNNEKNISCVERGWSTPPICSFTKGECHVPILEANVDAQPKKESYKVGDVLKFSCRKNLIRVGSDSVQCYQFGWSPNFPTCKGQVRSCGPPPQLSNGEVKEIRKEEYGHNEVVEYDCNPNFIINGPKKIQCVDGEWTTLPTCVEQVKTCGYIPELEYGYVQPSVPPYQHGVSVEVNCRNEYAMIGNNMITCINGIWTELPMCVATHQLKRCKIAGVNIKTLLKLSGKEFNHNSRIRYRCSDIFRYRHSVCINGKWNPEVDCTEKREQFCPPPPQIPNAQNMTTTVNYQDGEKVAVLCKENYLLPEAKEIVCKDGRWQSLPRCVESTAYCGPPPSINNGDTTSFPLSVYPPGSTVTYRCQSFYKLQGSVTVTCRNKQWSEPPRCLDPCVVSEENMNKNNIQLKWRNDGKLYAKTGDAVEFQCKFPHKAMISSPPFRAICQEGKFEYPICE
partner: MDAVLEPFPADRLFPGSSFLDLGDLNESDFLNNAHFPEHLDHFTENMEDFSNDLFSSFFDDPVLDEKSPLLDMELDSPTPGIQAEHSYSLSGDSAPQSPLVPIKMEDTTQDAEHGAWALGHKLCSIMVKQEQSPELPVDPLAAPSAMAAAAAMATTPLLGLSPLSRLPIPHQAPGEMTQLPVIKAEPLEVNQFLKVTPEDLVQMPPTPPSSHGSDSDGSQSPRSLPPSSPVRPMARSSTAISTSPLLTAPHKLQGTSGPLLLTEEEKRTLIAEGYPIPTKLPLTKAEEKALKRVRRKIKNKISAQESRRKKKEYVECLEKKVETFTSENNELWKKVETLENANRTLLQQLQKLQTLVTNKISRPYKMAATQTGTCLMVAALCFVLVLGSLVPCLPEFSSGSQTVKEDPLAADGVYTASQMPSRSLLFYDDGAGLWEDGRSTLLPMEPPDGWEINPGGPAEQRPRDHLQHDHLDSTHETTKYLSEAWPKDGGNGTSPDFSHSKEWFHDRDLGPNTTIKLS
B6: U4/U6 small nuclear ribonucleoprotein Prp31 (Homo sapiens), Q8WWY3 (parent)
chain: B2 chain
partner: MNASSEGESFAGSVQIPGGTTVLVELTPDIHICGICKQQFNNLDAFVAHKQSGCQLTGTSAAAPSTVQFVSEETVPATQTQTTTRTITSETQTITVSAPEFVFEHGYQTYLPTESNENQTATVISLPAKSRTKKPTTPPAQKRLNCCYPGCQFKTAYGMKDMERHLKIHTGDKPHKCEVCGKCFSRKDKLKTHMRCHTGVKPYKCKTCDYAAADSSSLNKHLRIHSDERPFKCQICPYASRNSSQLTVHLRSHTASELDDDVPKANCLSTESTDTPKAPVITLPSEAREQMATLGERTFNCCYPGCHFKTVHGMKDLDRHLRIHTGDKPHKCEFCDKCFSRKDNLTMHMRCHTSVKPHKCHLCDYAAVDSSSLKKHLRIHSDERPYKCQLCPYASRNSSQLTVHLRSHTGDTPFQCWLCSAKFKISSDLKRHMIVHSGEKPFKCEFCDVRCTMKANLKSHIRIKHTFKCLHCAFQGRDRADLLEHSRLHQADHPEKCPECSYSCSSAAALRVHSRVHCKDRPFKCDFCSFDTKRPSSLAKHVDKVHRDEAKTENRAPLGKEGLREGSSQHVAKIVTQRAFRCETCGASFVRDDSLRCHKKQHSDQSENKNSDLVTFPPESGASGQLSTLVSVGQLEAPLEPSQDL
B7: SH2 domain-containing protein 1A (Homo sapiens), O60880 (parent)
chain: MDAVAVYHGKISRETGEKLLLATGLDGSYLLRDSESVPGVYCLCVLYHGYIYTYRVSQTETGSWSAETAPGVHKRYFRKIKNLISAFQKPDQGIVIPLQYPVEKKSSARSTQGTTGIREDPDVCLKAP
partner: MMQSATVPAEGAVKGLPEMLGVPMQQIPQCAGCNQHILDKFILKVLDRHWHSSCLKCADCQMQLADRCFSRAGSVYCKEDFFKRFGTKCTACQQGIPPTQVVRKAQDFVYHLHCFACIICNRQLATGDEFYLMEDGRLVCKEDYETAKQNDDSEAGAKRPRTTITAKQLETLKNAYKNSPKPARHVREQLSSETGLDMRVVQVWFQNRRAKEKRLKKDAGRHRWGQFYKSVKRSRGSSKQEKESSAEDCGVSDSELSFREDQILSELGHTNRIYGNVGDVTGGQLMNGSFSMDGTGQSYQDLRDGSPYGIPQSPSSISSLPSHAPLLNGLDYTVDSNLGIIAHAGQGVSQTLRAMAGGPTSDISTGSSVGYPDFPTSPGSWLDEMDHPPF

Variants of: B1
Conditions: with fam9b_human FAM9B

Variant	effect of a mutation on the interaction
N269H	with no effect
I199F	disrupting interaction strength

Variants of: B2
Conditions: with kr108_human KRTAP10-8, P60410

Variant	effect of a mutation on the interaction
L107V	with no effect

Variants of: B3
Conditions: with spdly_human SPDL1, Q96EA4

Variant	effect of a mutation on the interaction
S100P	disrupting interaction strength

Variants of: B4
Conditions: with otx1_human OTX1, P32242
otx1_human OTX1, P32242, sequence (P32242 whole entry): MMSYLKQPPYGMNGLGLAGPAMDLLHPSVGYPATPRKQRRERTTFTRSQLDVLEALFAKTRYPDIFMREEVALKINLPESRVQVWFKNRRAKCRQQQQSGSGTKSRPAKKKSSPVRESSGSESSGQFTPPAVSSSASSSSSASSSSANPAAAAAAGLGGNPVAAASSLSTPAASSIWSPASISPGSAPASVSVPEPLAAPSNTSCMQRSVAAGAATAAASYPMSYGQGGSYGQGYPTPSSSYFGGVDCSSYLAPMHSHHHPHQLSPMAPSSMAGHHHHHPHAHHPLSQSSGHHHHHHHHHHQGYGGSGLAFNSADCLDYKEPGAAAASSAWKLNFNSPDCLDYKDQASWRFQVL

Variant	effect of a mutation on the interaction
V60L	disrupting interaction strength

Variants of: B4
Conditions: with meox2_human MEOX2, P50222
meox2_human MEOX2, P50222, sequence (P50222 whole entry): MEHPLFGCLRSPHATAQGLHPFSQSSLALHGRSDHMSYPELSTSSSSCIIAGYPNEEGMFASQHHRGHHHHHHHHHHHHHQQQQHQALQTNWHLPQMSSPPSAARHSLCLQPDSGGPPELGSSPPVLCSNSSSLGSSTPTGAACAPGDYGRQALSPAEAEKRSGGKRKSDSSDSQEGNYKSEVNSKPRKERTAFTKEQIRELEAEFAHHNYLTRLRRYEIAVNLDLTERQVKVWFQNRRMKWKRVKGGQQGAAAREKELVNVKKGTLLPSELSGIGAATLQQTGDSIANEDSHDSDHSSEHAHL

Variant	effect of a mutation on the interaction
V60L	disrupting interaction strength

Variants of: B5
Conditions: with cr3l1_human CREB3L1, Q96BA8

Variant	effect of a mutation on the interaction
M514R	with no effect
K144N	with no effect

Variants of: B6
Conditions: with zf64b_human ZFP64, Q9NTW7

Variant	effect of a mutation on the interaction
L107V	with no effect

Variants of: B7
Conditions: with lhx4_human LHX4, Q969G2

Variant	effect of a mutation on the interaction
G93D	with no effect
